Experimental data taken from publication doi:10.1101/2023.01.17.524398.

Molecular target: Aplysia punctata ink toxin (APIT), recombinant (Aplysia punctata)
Assay: MALDI mass spectrometry

With “Aplysia punctata ink toxin (APIT), recombinant (enzyme)” the stoichiometry N was 2.
